B1: mut R3A,Q6A (peptide)
peptide: MSARKAAKPQHI
notes: One of the double mutants with the loss of only one key residue (group m57); also called SALL4 (1-12) peptide, double mutant R3A-Q6A
B2: mut R4A,Q6A (peptide)
peptide: MSRAKAAKPQHI
notes: One of the double mutants with the loss of only one key residue (group m57); also called SALL4 (1-12) peptide, double mutant R4A-Q6A
B3: mut K5A,Q6A (peptide)
peptide: MSRRAAAKPQHI
notes: One of the double mutants with the loss of only one key residue (group m57); also called SALL4 (1-12) peptide, double mutant K5A-Q6A
B4: Peptide 1 (Ac-MSRRKQAKPQHI-NH2) (peptide)
peptide: Ac-MSRRKQAKPQHI-NH2
notes: also called WT; original 12-residue WT peptide
B5: Peptide 31 (Ac-RRKQAKpQHI-NH2) (peptide)
peptide: Ac-RRKQAK[code p]QHI-NH2
modifications: not fully specified; printed as Ac-RRKQAKpQHI-NH2
notes: P7 mutation of peptide 6; position 7 printed in lower case

Square brackets hold non-standard residues; d marks the D form.

The target of the first assay is T1, retinoblastoma binding protein 4 (RBBp4) (UniProt Q09028 1-425).
T1 construct: Bought protein; Crystal structure numbering runs at least over residues 33-404; also called RbAp48
T1 sequence (Q09028 whole entry, the tested form may be a part): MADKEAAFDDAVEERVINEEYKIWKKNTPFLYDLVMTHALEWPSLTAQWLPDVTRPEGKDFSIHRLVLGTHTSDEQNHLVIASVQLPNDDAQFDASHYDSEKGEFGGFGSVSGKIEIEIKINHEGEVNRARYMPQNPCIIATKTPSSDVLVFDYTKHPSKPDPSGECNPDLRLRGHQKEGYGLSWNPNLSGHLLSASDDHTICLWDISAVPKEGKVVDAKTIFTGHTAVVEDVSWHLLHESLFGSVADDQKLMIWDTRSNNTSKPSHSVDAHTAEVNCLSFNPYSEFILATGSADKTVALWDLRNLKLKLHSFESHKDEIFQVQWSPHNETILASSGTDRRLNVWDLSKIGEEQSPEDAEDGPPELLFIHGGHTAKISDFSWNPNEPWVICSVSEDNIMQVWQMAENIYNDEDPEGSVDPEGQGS
In words: fluorescence polarization competition; peptide titrated into RBBp4 with C-labelled FITC-SALL4 WT peptide as the displaced tracer. As to the method:
(§1) FIGS. 3A-3E. […] The difference in the binding free energy (ΔΔGbind) of the alanine mutants (ΔGₘᵤₜₐₙₜ, Ala7 was mutated to glycine) and wild type (ΔG_{wild type}) was calculated (ΔΔGbind=ΔGₘᵤₜₐₙₜ−ΔG_{wild type}). ΔΔGbind was tabulated (left) and plotted in a bar chart (right). […] Mutated residues are highlighted in red. The IC₅₀ of each peptide, including WT, was determined by Fluorescence Polarization (FP). […] Polarization was measured in mP. […] Pep-1 carrier was added to the peptide to facilitate cellular penetration of the peptides.
(§2) In silico analysis using computational alanine scanning was performed on the key residues identified by the crystal contacts.
In general terms: In fluorescence polarisation assays a small probe gives low polarisation when free and higher when bound to something large.
As usually defined, the IC50 is the concentration needed to halve the response being measured. Molecule MSARKQAKPQHI [SALL4 (1-12) peptide bearing the R3A mutation] came in with an IC50 of 4500 nM.
B1 displayed a half-maximal inhibitory concentration (IC50) of 4100 nM.
Same read-out and setting: under B2 stands 4700 nM; under B3, 4400 nM.

A further assay has as its target T1, retinoblastoma binding protein 4 (RBBp4). In words: fluorescence polarization competition: peptide titrated into RBBp4 + C-terminal FITC-labelled WT SALL4 peptide. As to the method: Reactions were incubated at room temperature before the plate was read with an Envision instrument (Perkin Elmer). IC₅₀ values of peptides were determined using Prism (GraphPad).
On to Ac-SRRKQAKPQHI-NH2 (N-terminal truncation of WT) [Peptide 5 (Ac-SRRKQAKPQHI-NH2)], for which the IC50 was 600 nM.
Turning to B4, the concentration for half-maximal inhibition (IC50) turned out to be 1040 nM.
Same read-out and setting: the same measure for Ac-MSRRKQAKPQ-NH2 (C-terminal truncation of WT) [Peptide 3 (Ac-MSRRKQAKPQ-NH2)]: 800 nM; for Ac-MSRRKQAKPQH-NH2 (C-terminal truncation of WT) [Peptide 2 (Ac-MSRRKQAKPQH-NH2)]: 1290 nM; for B5: 6600 nM.
As to Ac-MSRRKQAKP-NH2 (C-terminal truncation of WT) [Peptide 4 (Ac-MSRRKQAKP-NH2)], the IC50 worked out at 1910 nM.
Regarding Ac-RRKQAKPQHI-NH2 [Peptide 6 (printed Ac-…-NH2; WT without Met1 and Ser2)], the IC50 was found to be 360 nM.
Turning to Ac-RRKQAKVQHI-NH2 (P7 mutation of peptide 6) [Peptide 32 (Ac-RRKQAKVQHI-NH2)], the IC50 turned out to be 5800 nM.
On the same count and under the same terms, under Ac-RRKQAKLQHI-NH2 (P7 mutation of peptide 6) [Peptide 33 (Ac-RRKQAKLQHI-NH2)] stands 4400 nM; under Ac-RRKVAKPQHI-NH2 (Q4 mutation of peptide 6) [Peptide 22 (Ac-RRKVAKPQHI-NH2)], 410 nM.
Take Ac-RKKQAKPQHI-NH2 (R2 mutation of peptide 6) [Peptide 18 (Ac-RKKQAKPQHI-NH2)]: the IC50 amounted to 2300 nM.
Still for that read-out and setting: the same measure for Ac-RRKEAKPQHI-NH2 (Q4 mutation of peptide 6) [Peptide 20 (Ac-RRKEAKPQHI-NH2)]: 3490 nM; for Ac-RRKAAKPQHI-NH2 [Peptide 11 (Ac-RRKAAKPQHI-NH2)]: 190 nM; for Ac-RRKQAKPVHI-NH2 [Peptide 37 (Ac-RRKQAKPVHI-NH2)]: 350 nM.
The same measure, in the same setting: the same measure for Ac-RRKLAKPQHI-NH2 (Q4 mutation of peptide 6) [Peptide 23 (Ac-RRKLAKPQHI-NH2)]: 270 nM; for Ac-RRKNAKPQHI-NH2 (Q4 mutation of peptide 6) [Peptide 21 (Ac-RRKNAKPQHI-NH2)]: 920 nM; for Ac-RRKQAKPQHA-NH2 [Peptide 16 (Ac-RRKQAKPQHA-NH2)]: 460 nM.
On the same count and under the same terms, the same measure for Ac-RRKQAKFQHI-NH2 [Peptide 34 (Ac-RRKQAKFQHI-NH2)]: 170 nM.
For Ac-RRKQAVPQHI-NH2 [Peptide 27 (Ac-RRKQAVPQHI-NH2)], the 50% inhibitory concentration (IC50) was found to be 910 nM.
With Ac-RRKQAKPLHI-NH2 [Peptide 38 (Ac-RRKQAKPLHI-NH2)], the IC50 turned out to be 460 nM.
The same measure, in the same setting: under Ac-RRKQAKPQHL-NH2 (To be rechecked) [Peptide 44 (printed Ac-RRKCIAKPOHL-NH2)] stands 590 nM; under Ac-RRRQAKPQHI-NH2 (K3 mutation of peptide 6) [Peptide 19 (Ac-RRRQAKPQHI-NH2)], 630 nM.
Same read-out and setting: the same measure for Ac-RRKQAKPNHI-NH2 [Peptide 36 (Ac-RRKQAKPNHI-NH2)]: 790 nM; for Ac-RRKQAKAQHI-NH2 (Ala scan of peptide 6) [Peptide 13 (Ac-RRKQAKAQHI-NH2)]: 270 nM.
Ac-RRKQAKPAHI-NH2 [Peptide 14 (Ac-RRKQAKPAHI-NH2)]: the IC50 was found to be 120 nM.
Take Ac-RRKQAKPQAI-NH2 [Peptide 15 (Ac-RRKQAKPQAI-NH2)]: the half-maximal inhibitory concentration (IC50) was determined as 730 nM.
On the same count and under the same terms, under Ac-RRKQAKPQYI-NH2 [Peptide 40 (Ac-RRKQAKPQYI-NH2)] stands 2850 nM; under Ac-RRKQAKPEHI-NH2 [Peptide 35 (Ac-RRKQAKPEHI-NH2)], 570 nM.
Same read-out and setting: under Ac-RRKQARPQHI-NH2 [Peptide 30 (Ac-RRKQARPQHI-NH2)] stands 330 nM; under Ac-RRKQAFPQHI-NH2 [Peptide 29 (Ac-RRKQAFPQHI-NH2)], 530 nM.
For Ac-RRKQRKPQHI-NH2 [Peptide 26 (Ac-RRKQRKPQHI-NH2)], the IC50 came out at 460 nM.
The same measure, in the same setting: under Ac-RRKQAKPQFI-NH2 [Peptide 39 (Ac-RRKQAKPQFI-NH2)] stands 340 nM.
On the same count and under the same terms, under Ac-RRKQALPQHI-NH2 [Peptide 28 (Ac-RRKQALPQHI-NH2)] stands 310 nM.
On to Ac-RRKQKKPQHI-NH2 [Peptide 25 (Ac-RRKQKKPQHI-NH2)], for which the IC50 worked out at 380 nM.
For Ac-RRKQAKPQVI-NH2 [Peptide 42 (Ac-RRKQAKPQVI-NH2)], the IC50 was determined as 480 nM.
In the case of Ac-RRKQAAPQHI-NH2 [Peptide 12 (Ac-RRKQAAPQHI-NH2)], the IC50 came out at 160 nM.
For Ac-KRKQAKPQHI-NH2 (R1 mutation of peptide 6) [Peptide 17 (Ac-KRKQAKPQHI-NH2)], the half-maximal inhibitory concentration (IC50) amounted to 3800 nM.

A further assay has the same target. The description is as above. The source holds these as a separate data set.
On to B4, for which the half-inhibitory concentration (IC50) worked out at 1300 nM.
Take Ac-MSRRKQAKPQH-NH2 (C-terminal truncation of WT) [Peptide 2 (Ac-MSRRKQAKPQH-NH2)]: the IC50 amounted to 1400 nM.
Same read-out and setting: the same measure for Ac-MSRRKQAKP-NH2 (C-terminal truncation of WT) [Peptide 4 (Ac-MSRRKQAKP-NH2)]: 1960 nM; for MSRRAQAKPQHI [SALL4 (1-12) peptide bearing the K5A mutation]: 7000 nM.
With MSRRKAAKPQHI [SALL4 (1-12) peptide bearing the Q6A mutation], the IC50 stood at 1300 nM.
With MSRAKQAKPQHI [SALL4 (1-12) peptide bearing the R4A mutation], the IC50 turned out to be 8900 nM.
Still for that read-out and setting: under MSARKQAKPQHI [SALL4 (1-12) peptide bearing the R3A mutation] stands 3800 nM.

A further assay shares this target. Put plainly: fluorescence polarization competition; peptide titrated into RBBp4 with C-labelled FITC-SALL4 WT peptide as the displaced tracer. This is another data set of the same source. On the procedure:
as §1, §2
In turn, MSARKQAKPQHI [SALL4 (1-12) peptide bearing the R3A mutation] gave an IC50 of 4500 nM.
Same read-out and setting: the same measure for B1: 4100 nM; for B2: 4700 nM.
B3 gave a half-inhibitory concentration (IC50) of 4400 nM.

(Values after patent publication US20190218253A1 (NATIONAL UNIVERSITY OF SINGAPORE, published 2019).)
